This passage reports percent of Imp-L2 crosslinked results from publication PMC6794382.

This experiment concerns the target Drosophila melanogaster imaginal morphogenesis protein-late 2 protein (Imp-L2) (Drosophila melanogaster) (UniProt Q09024). Put plainly: cross-linking; Sulfo-SDA-modified ligand (about 100 μg, 10–20 nmol) incubated with recombinant Imp-L2 (76 μg, about 3 nmol) overnight at 4°C, irradiated at 365 nm for 5 min; SDS-PAGE, western blot with anti-IGF-1, tryptic digest of the excised band and LC-MS/MS (Links, StavroX). For orientation: A western blot detects proteins with antibodies after separation by electrophoresis.
Sequence of UniProt Q09024 (Q09024 26-267): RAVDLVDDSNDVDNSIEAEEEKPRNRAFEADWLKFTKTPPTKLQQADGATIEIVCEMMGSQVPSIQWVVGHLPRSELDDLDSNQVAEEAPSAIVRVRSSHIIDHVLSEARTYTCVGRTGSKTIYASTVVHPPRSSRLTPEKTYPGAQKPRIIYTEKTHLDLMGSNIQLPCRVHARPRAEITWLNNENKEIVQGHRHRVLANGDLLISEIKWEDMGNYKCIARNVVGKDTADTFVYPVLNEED

With “des(63-70)-IGF-1 (human IGF-1 lacking the C-terminal D domain amino acids PLKPAKSA, with an additional N-terminal Gly-1) (ligand)”, the percent of Imp-L2 crosslinked was 10 to 20%.
